According to article PMC4575918, “Regulation of p53 oligomerization by Ras superfamily protein RBEL1A” (Genes & Cancer, 2015):

What was measured:
[1] = biological target: the molecule itself; assay: cross-linking; purified p53 (315-360) incubated with purified RBEL1A or BSA (1:1 or 2:1 molar ratio) 1 hour at 4 C, then glutaraldehyde 5 minutes at 4 C; SDS-PAGE, anti-p53 (FL-393) blot
[2] = biological target: T1, purified recombinant full-length RBEL1A (UniProt Q3YEC7-1 1-729, purification (1): glycosylated (larger molecular mass); purification (2): unglycosylated or less glycosylated); assay: as above; conditions: both partners purified
T1 construct: RBEL1A, Ras superfamily GTPase, full length; also called recombinant RBEL1A; RBEL1A (1); source: purified recombinant protein
T1 sequence (looked up): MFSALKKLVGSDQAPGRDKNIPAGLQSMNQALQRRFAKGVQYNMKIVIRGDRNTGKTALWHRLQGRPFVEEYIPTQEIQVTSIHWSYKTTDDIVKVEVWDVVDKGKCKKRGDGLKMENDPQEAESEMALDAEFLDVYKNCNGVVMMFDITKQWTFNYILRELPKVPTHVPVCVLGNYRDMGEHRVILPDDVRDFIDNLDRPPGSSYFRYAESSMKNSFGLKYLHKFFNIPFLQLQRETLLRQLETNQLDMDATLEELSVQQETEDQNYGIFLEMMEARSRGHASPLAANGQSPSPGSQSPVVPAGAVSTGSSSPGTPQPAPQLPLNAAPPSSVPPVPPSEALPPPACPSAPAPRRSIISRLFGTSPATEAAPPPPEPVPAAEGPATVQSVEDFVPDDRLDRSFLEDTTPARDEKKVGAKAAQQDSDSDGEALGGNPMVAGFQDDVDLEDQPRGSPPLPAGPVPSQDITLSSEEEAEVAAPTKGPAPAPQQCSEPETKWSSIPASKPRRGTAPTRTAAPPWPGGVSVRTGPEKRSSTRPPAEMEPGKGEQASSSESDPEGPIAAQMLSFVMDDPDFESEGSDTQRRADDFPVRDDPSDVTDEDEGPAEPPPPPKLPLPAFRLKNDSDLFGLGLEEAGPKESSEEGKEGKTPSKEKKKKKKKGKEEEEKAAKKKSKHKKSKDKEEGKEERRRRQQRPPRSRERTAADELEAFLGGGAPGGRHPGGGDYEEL

B1: purified recombinant p53 tetramerization domain (residues 315-360) (domain or fragment, UniProt P04637 315-360, looked up)
chain: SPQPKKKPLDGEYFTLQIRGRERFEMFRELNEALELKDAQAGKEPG
notes: p53 tumor suppressor, residues 315-360 (tetramerization domain); also called p53-Oligo-D; recombinant p53 (315-360); source: purified recombinant polypeptide
stoichiometry N [1]: 4
binding result [2]: binds
